Measurements as given in patent US20080025990A1 (Eli Lilly, published 2008).
Values joined by “and” are separate entries in the source; they are usually repeats but may differ in a detail not shown here. Equal entries are not always repeated. Each block holds one binder with its values, some of them ahead of it.

Assays:
[1] = target: T1, native human IGF-IR on human tumor cells (human, UniProt P08069 31-1367); assay: inhibition of 125I-IGF-I binding to MCF7 (breast) cells
T1 construct: whole, on cells; also called endogenous cellular IGF-IR; solubilized IGF-IR (from MCF7 lysate)
Procedure: (§1) The anti-IGF-IR antibodies were then tested for blocking of radiolabeled ligand to native IGF-IR on human tumor cells. […] MCF7 human breast cancer cells were seeded into 24 well dishes, and cultured overnight. Sub-confluent monolayers were washed 2-3 times in binding buffer (Iscove's Medium/0.1% BSA) and antibody added in binding buffer. […] The wells were then washed three times with ice-cold PBS/0.1% BSA. Monolayers were then lysed with 200 μl 0.5N NaOH and counted in a gamma counter.

[2] = target: recombinant extracellular portion of human IGF-IR (soluble IGF-IR) (human) (UniProt P08069); assay: comparison of affinities (BIAcore, Table 3)
[3] = target: recombinant extracellular portion of human IGF-IR (soluble IGF-IR) (human) (UniProt P08069); assay: human IGF-IR ELISA, full IgG; column head 'Binding (ED50)', concentration for 50% binding relative to saturation
[4] = target: T1, native human IGF-IR on human tumor cells; assay: cell-based or functional assay
[5] = target: T1, native human IGF-IR on human tumor cells; assay: inhibition of 125I-IGF-I binding to T47D (breast) cells
[6] = target: T1, native human IGF-IR on human tumor cells; assay: inhibition of 125I-IGF-I binding to 8226 (myeloma) cells
[7] = target: T1, native human IGF-IR on human tumor cells; assay: inhibition of 125I-IGF-I binding to MCF7 cells (the 3 nM is written at Table 4)
Procedure: as §1

[8] = target: T1, native human IGF-IR on human tumor cells; assay: inhibition of 125I-IGF-I binding to BXPC3 (pancreatic) cells
[9] = target: recombinant extracellular portion of human IGF-IR (soluble IGF-IR) (human) (UniProt P08069); assay: inhibition of 125I-IGF-I binding to immobilized IGF-IR, A12 against 2F8
[10] = target: T1, native human IGF-IR on human tumor cells; assay: inhibition of 125I-IGF-I binding to OV90 (ovarian) cells
[11] = target: recombinant extracellular portion of human IGF-IR (soluble IGF-IR) (human) (UniProt P08069); assay: inhibition of 125I-IGF-I binding to immobilized human IGF-IR, full IgG; 'Blocking (EC50)'
[12] = target: T1, native human IGF-IR on human tumor cells; assay: inhibition of 125I-IGF-I binding to HT-29 (colorectal) cells
[13] = target: T1, native human IGF-IR on human tumor cells; assay: cell-based or functional assay; remark: listed apart in the source
[14] = target: T1, native human IGF-IR on human tumor cells; assay: cell-based or functional assay; remark: listed apart in the source
[15] = target: T1, native human IGF-IR on human tumor cells; assay: inhibition of 125I-IGF-I binding to SK-ES1 (Ewing sarcoma) cells
[16] = target: T1, native human IGF-IR on human tumor cells; assay: inhibition of 125I-IGF-I binding to HPAC (pancreatic) cells
[17] = target: T1, native human IGF-IR on human tumor cells; assay: inhibition of 125I-IGF-I binding to MCF7 cells
Procedure: as §1

[18] = target: recombinant extracellular portion of human IGF-IR (soluble IGF-IR) (human) (UniProt P08069); assay: inhibition of 125I-IGF-I binding to immobilized human IGF-IR, full IgG; 'Blocking (EC50)'; lower end of the printed range 3-6 nM
[19] = target: recombinant extracellular portion of human IGF-IR (soluble IGF-IR) (human) (UniProt P08069); assay: BIAcore 3000, soluble IGF-IR immobilized on the chip, full IgG
[20] = target: recombinant extracellular portion of human IGF-IR (soluble IGF-IR) (human) (UniProt P08069); assay: BIAcore binding kinetic analysis
[21] = target: recombinant extracellular portion of human IGF-IR (soluble IGF-IR) (human) (UniProt P08069); assay: inhibition of 125I-IGF-I binding to immobilized human IGF-IR, full IgG; 'Blocking (EC50)'; upper end of the printed range 3-6 nM

- IC50 [1]: 3 nM
- fold higher affinity relative to 2F8 [2]: 10 fold
- EC50 [3]: 0.3 nM
- reduction in IGF-IR surface staining of MCF7 cells after 4 h with 50 nM A12 at 37 C (FACS, mean fluorescence intensity ratio) [4]: 90%
- IC50 [5]: 6 nM
- IC50 [6]: 20 nM
- IC50 [7]: 0.45 µg/mL
- IC50 [8]: 20 nM
- fold increase in blocking activity relative to 2F8 [9]: > 3 fold
- IC50 [10]: 6 nM
- IC50 [11]: 0.6 to 1 nM
- IC50 [12]: 10 nM
- IC50 of inhibition of IGF-I-stimulated [3H]thymidine incorporation (mitogenesis), MCF7 breast [13]: 6 nM
- IC50 of inhibition of mitogenesis, 8226 myeloma [13]: 5 nM
- IC50 of inhibition of mitogenesis, BT474 breast [13]: 5 nM
- IC50 of inhibition of mitogenesis, BXPC3 pancreatic [13]: 2 nM
- IC50 of inhibition of mitogenesis, HT-29 colorectal [13]: 6 nM
- IC50 of inhibition of mitogenesis, SK-ES1 Ewing sarcoma [13]: 10 nM
- IC50 of inhibition of mitogenesis, T47D breast [13]: 7 nM
- surface IGF-IR staining of MCF7 cells (mean fluorescence intensity ratio) after 4 hours with A12; untreated cells 35.7, control 1 [14]: 3.3
- IC50 [15]: 2 nM
- IC50 [16]: 10 nM
B1: antibody A12, full length human IgG1 with lambda light chain (antibody, V domains shown)
VH: EVQLVQSGAEVKKPGSSVKVSCKASGGTFSSYAISWVRQAPGQGLEWMGGIIPIFGTANYAQKFQGRVTITADKSTSTAYMELSSLRSEDTAVYYCARAPLRFLEWSTQDHYYYYYMDVWGKGTTVTVSS
VL: SSELTQDPAVSVALGQTVRITCQGDSLRSYYATWYQQKPGQAPILVIYGENKRPSGIPDRFSGSSSGNTASLTITGAQAEDEADYYCKSRDGSGQHLVFGGGTKLTVLG
notes: also called IMC-A12; mAb A12

- EC50 [3]: 2 nM
- IC50 [17]: 30 nM and 4.5 µg/mL
- IC50 [18]: > 3 nM
- Kd [19]: 0.65 nM
- Kd [20]: 0.5 to 1 nM
- IC50 [21]: < 6 nM
B2: antibody 2F8, full length human IgG1 with lambda light chain (antibody, V domains shown)
VH: EVQLVQSGAEVKKPGSSVKVSCKASGGTFSSYAISWVRQAPGQGLEWMGGIIPIFGTANYAQKFQGRVTITADKSTSTAYMELSSLRSEDTAVYYCARAPLRFLEWSTQDHYYYYYMDVWGKGTTVTVSS
VL: SSELTQDPAVSVALGQTVRITCQGDSLRSYYASWYQQKPGQAPVLVIYGKNNRPSGIPDRFSGSSSGNTASLTITGAQAEDEADYYCNSRDNSDNRLIFGGGTKLTVLS
notes: Tested as full IgG1 (human gamma 1 constant region) with full-length lambda light chain; also called IMC-2F8; 2F8 IgG
